Data: patent US20130064825A1

Columns and labels:
[1] = molecular target: cynomolgus monkey PCSK9, V5-6xHIS tagged (cynomolgus monkey); test: SPR (Biacore 2000), antibody amine-coupled on CM5 chip, PCSK9 injected, pH 7.4
[2] = molecular target: cynomolgus monkey PCSK9, V5-6xHIS tagged (cynomolgus monkey); test: KinExA solution equilibrium, PCSK9-coated beads

31H4, anti-PCSK9 huIgG4 (antibody) gave a Kd [1] of 0.19 nM and a Kd [2] of 0.002 nM.
